Data on three molecules can be found in paper PMC1635293.

Read-outs that look alike come from different tables or passages of the source.

Assay in all cases: competition
For series [1], the target named is T1, Exportin-5 (hsExp5);hsRanQ69L (GTP form) (human;human, UniProt Q9HAV4;P62826 1-1204;1-216, |Q69L).
The target in series [2] is Exportin-5 (dmExp5);dmRanQ69L (GTP form) (Drosophila melanogaster?;Drosophila, UniProt Q9BP41;Q9VZ23 1-1241;1-216, |Q69L).
For series [3], the target named is T1, Exportin-5 (hsExp5);hsRanQ69L (GTP form). This is another data set of the same source.
Series [4] deals with T2, Msn5p (yeast exportin-5 orthologue);Gsp1pQ71L (GTP form) (budding yeast;yeast, UniProt P52918;P32835 1-1224;1-219, |Q71L).
Series [5] addresses T2, Msn5p (yeast exportin-5 …). This is another data set of the same source.

T1 sequence (Q9HAV4 whole entry Q69L, one chain of several): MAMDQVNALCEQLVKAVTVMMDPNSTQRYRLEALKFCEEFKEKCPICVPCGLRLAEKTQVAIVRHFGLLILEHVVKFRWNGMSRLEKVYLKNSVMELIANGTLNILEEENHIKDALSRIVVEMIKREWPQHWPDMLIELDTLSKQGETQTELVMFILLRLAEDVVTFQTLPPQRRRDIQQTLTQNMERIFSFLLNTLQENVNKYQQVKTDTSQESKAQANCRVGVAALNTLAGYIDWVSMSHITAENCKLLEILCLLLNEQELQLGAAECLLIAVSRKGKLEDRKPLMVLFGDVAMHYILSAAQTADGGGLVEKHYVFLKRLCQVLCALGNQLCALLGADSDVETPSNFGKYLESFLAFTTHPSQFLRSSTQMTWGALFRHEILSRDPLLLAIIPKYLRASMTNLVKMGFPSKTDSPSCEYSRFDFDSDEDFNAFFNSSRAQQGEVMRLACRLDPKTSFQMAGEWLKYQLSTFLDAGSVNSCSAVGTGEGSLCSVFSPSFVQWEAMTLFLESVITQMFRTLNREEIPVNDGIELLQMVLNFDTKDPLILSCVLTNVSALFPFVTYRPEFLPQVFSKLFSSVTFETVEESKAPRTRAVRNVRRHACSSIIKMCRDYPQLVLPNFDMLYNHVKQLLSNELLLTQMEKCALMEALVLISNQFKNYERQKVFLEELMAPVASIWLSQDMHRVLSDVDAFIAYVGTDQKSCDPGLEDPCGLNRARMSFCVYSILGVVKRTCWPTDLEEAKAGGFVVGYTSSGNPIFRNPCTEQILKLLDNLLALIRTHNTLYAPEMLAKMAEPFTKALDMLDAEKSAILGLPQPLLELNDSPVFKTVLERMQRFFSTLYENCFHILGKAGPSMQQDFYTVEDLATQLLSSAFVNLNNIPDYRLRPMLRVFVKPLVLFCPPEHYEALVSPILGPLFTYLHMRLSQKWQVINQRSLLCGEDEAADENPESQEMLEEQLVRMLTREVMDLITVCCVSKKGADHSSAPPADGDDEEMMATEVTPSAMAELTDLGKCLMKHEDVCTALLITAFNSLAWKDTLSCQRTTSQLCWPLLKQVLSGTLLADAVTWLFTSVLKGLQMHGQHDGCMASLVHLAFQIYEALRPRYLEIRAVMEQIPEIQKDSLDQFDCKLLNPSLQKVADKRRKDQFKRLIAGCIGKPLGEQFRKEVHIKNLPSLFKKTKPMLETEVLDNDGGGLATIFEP

B1: dsRNA with 2 nt 3' overhang (22 bp dsRNA) (dsRNA)
RNA 1: GGGCUUUCAGUCGGAUGUUUGCAGC
RNA 2: UGCAAACAUCCGACUGAAAGC
For B1, the binding result in series [1] and in series [2] was “binds” throughout.

B2: dsRNA with 2 nt 5' overhang (dsRNA)
RNA 1: GGGCUUUCAGUCGGAUGUUUG
RNA 2: UGCAAACAUCCGACUGAAAGC
On to B2, for which the binding result in series [3] and in series [4] was “no binding” each time.

B3: dsDNA encoding the same sequence as the dsRNA (dsDNA)
DNA 1: GGGCTTTCAGTCGGATGTTTGCAGC
DNA 2: TGCAAACATCCGACTGAAAGC
For B3, the binding result in series [1], in series [2] and in series [5] was “no binding” in each case.
